Measured values published in patent US20020155571A1, “Triazine degrading enzymes” (priority 2000, published 2002).
Numbering of substitutions follows the chain as printed.

Experiments:
Type in all cases: biochemical
[1] = Product formation by washed and induced cells expressing triazine hydrolase, substrate aminoatrazine; conditions: 250 μM substrate, 20 ul washed and induced cells in 100 μl NH3Acetate pH 6.8, 22° C.
[2] = Product formation by washed and induced cells expressing triazine hydrolase, substrate atrazine; conditions: 250 μM substrate, 20 ul washed and induced cells in 100 μl NH3Acetate pH 6.8, 22° C.
[3] = Product formation by washed and induced cells expressing triazine hydrolase, substrate aminopropazine; conditions: 250 μM substrate, 20 ul washed and induced cells OD600 = 3 in 100 μl 10 mM NH3Acetate pH 6.8, 37° C.
[4] = Product formation by washed and induced cells expressing triazine hydrolase, substrate N-methylatrazine; conditions: 250 μM substrate, 20 ul washed and induced cells in 100 μl NH3Acetate pH 6.8, 22° C.
[5] = Product formation by washed and induced cells expressing triazine hydrolase, substrate N-methylpropazine; conditions: 250 μM substrate, 20 ul washed and induced cells OD600 = 3 in 100 μl 10 mM NH3Acetate pH 6.8, 37° C.
[6] = Product formation by washed and induced cells expressing triazine hydrolase, substrate atratone; conditions: 250 μM substrate, 20 ul washed and induced cells in 100 μl NH3Acetate pH 6.8, 22° C.
[7] = Product formation by washed and induced cells expressing triazine hydrolase, substrate ametryn; conditions: 250 μM substrate, 20 ul washed and induced cells in 100 μl NH3Acetate pH 6.8, 22° C.
[8] = Product formation by washed and induced cells expressing triazine hydrolase, substrate prometon; conditions: 250 μM substrate, 20 ul washed and induced cells OD600 = 3 in 100 μl 10 mM NH3Acetate pH 6.8, 37° C.
[9] = Product formation by washed and induced cells expressing triazine hydrolase, substrate propazine; conditions: 250 μM substrate, 20 ul washed and induced cells OD600 = 3 in 100 μl 10 mM NH3Acetate pH 6.8, 37° C.
[10] = Product formation by washed and induced cells expressing triazine hydrolase, substrate prometryn; conditions: 250 μM substrate, 20 ul washed and induced cells OD600 = 3 in 100 μl 10 mM NH3Acetate pH 6.8, 37° C.
[11] = High throughput mass spectrometry screen of triazine hydrolase library against about 15 triazine derivatives; conditions: for Substrate Activity: ametryn: preferred substrates; for Substrate Activity: nme-atrazine: column lists substrates on which the library member shows preferred triazine hydrolase activity
[12] = Table 5, the value is the triazine substrate the library member (atzA-based variant) is active on, preferred members, not exclusive
[13] = substrate propazine, column indicates preferred embodiments, not exclusive
[14] = substrate(s) on which the triazine hydrolase library member shows activity, column indicates preferred embodiments and is not exclusive

B1: atzA: naturally occurring atrazine chlorohydrolase (atzA), GenBank #U55933 (protein, UniProt P72156 1-474, looked up)
Atrazine chlorohydrolase: MQTLSIQHGTLVTMDQYRRVLGDSWVHVQDGRIVALGVHAESVPPPADRVIDARGKVVLPGFINAHTHVNQILLRGGPSHGRQFYDWLFNVVYPGQKAMRPEDVAVAVRLYCAEAVRSGITTINENADSAIYPGNIEAAMAVYGEVGVRVVYARMFFDRMDGRIQGYVDALKARSPQVELCSIMEETAVAKDRITALSDQYHGTAGGRISVWPAPATTTAVTVEGMRWAQAFARDRAVMWTLHMAESDHDERIHGMSPAEYMECYGLLDERLQVAHCVYFDRKDVRLLHRHNVKVASQVVSNAYLGSGVAPVPEMVERGMAVGIGTDNGNSNDSVNMIGDMKFMAHIHRAVHRDADVLTPEKILEMATIDGARSLGMDHEIGSIETGKRADLILLDLRHPQTTPHHHLAATIVFQAYGNEVDTVLIDGNVVMENRRLSFLPPERELAFLEEAQSRATAILQRANMVANPAWRSL
Product formation, substrate Aminoatrazine [1]: 0 nM/h
Product formation, substrate Atrazine [2]: 58899 nM/h
Product formation, substrate Aminopropazine [3]: 0 nM/h
Product formation, substrate NMeAtrazine [4]: 0 nM/h
Product formation, substrate NMePropazine [5]: 0 nM/h
Product formation, substrate Atratone [6]: 0 nM/h
Product formation, substrate Ametryn [7]: 0 nM/h
Product formation, substrate Prometon [8]: 0 nM/h
Product formation, substrate Propazine [9]: 26 nM/h
Product formation, substrate Prometryn [10]: 0 nM/h

B2: 113 (protein)
chain: MQTLSIQHGTLVTMDQYRRVLGDSWVHVQDGRIVALGVHAESVPPPADRVIDARGKVVLPGFINAHTHVNQILLRGGPSHGRQFYDWLFNVLYPGQKAMRPEVAVAVRLYCAEAVRSGITTINEEADSAIYPGNIEAAMAVYGEVGVRVVYARMFFDRMDGRIQGYVDALKARSPQVELCSIMEETAVAKDRITALSDQYHGTAGGRISVWPAPATTTTVTVEGMRWAQAFARDRAVMWTLHMAESDHDERIIGGSPAEYMECYGLLDERLQVAHCVYFDRKDVRLLHRHNVKVASQVVSNAYLGSGVAPVPEMVERGMAVGIGTDNDNSCDSVNMIGDMKFMAHIHRAVHRDADVLTPEKILEMATIDGARSLGMDHEIGSIETGKRADLILLDLRHPQTTPHHHLAATIVFQAYGNEVDTVLIDGNVVMENRRLSFLPPERELAFLEEAQSRATAILQRANMVANPAWRSL
Substrate Activity [11, 12]: atratone

B3: 383 (protein)
chain: B2 chain with F84L, I253L, G255W, D328N
Substrate Activity: ametryn ([11]; not exclusive): ametryn

B4: 244 (protein)
chain: B2 chain with L92V, D328N, C331S
Substrate Activity [11, 13]: propazine

B5: 382 (protein)
chain: B2 chain with F84L, I253L, G255W, C331S
Substrate Activity: ametryn ([11]; not exclusive): ametryn

B6: 53 (protein)
chain: B2 chain with E125D, G255W
Substrate Activity [11, 12]: atratone

B7: 117 (protein)
chain: B2 chain with G255W
Substrate Activity [11, 12]: atratone

B8: 482 (protein)
chain: B2 chain with F84L, L92V, T219P, C331S
Substrate Activity [11, 14]: prometryn

B9: 370 (protein)
chain: B2 chain with F84L, C331S
Substrate Activity: ametryn ([11]; not exclusive): ametryn

B10: 349 (protein)
chain: B2 chain with F84L, T217I, I253L, G255W
Substrate Activity: nme-atrazine ([11]; not exclusive): nme-atrazine

B11: 128 (protein)
chain: B2 chain with I253L, G255W, D328N, C331S
Substrate Activity [11, 12]: atrazine

B12: 504 (protein)
chain: B2 chain with F84L, L92V, G255W, D328N, C331S
Substrate Activity [11, 14]: propazine

B13: 49 (protein)
chain: B2 chain with E125D
Substrate Activity [11, 12]: atratone

B14: 61 (protein)
chain: B2 chain with E125D, I253L, G255W
Substrate Activity [11, 12]: atratone

B15: 314 (protein)
chain: B2 chain with F84L, E125D, I253L, C331S
Substrate Activity: ametryn ([11]; not exclusive): ametryn

B16: 512 (protein)
chain: B2 chain with F84L, L92V, I253L, G255W, D328N, C331S
Substrate Activity [11, 14]: propazine

B17: 248 (protein)
chain: B2 chain with L92V, G255W, D328N, C331S
Substrate Activity [11, 13]: propazine

B18: 466 (protein)
chain: B2 chain with F84L, L92V, T217I, C331S
Substrate Activity [11, 14]: prometryn

B19: 498 (protein)
chain: B2 chain with F84L, L92V, C331S
Substrate Activity [11, 14]: prometryn

B20: 57 (protein)
chain: B2 chain with E125D, I253L
Substrate Activity [11, 12]: atratone

B21: 345 (protein)
chain: B2 chain with F84L, T217I, I253L
Substrate Activity: nme-atrazine ([11]; not exclusive): nme-atrazine

B22: 502 (protein)
chain: B2 chain with F84L, L92V, G255W, C331S
Substrate Activity [11, 14]: prometryn

B23: 508 (protein)
chain: B2 chain with F84L, L92V, I253L, D328N, C331S
Substrate Activity [11, 14]: propazine

B24: 124 (protein)
chain: B2 chain with I253L, D328N, C331S
Substrate Activity [11, 12]: atrazine

B25: 318 (protein)
chain: B2 chain with F84L, E125D, I253L, G255W, C331S
Substrate Activity: ametryn ([11]; not exclusive): ametryn
